In patent US20250129170A1:

Molecular target: human EPOR on cells (293T/EPOR cells; UT-7 cells) (human) (UniProt P19235)
Assay: cell-based or functional assay

Chain of human EPOR on cells (293T/EPOR cells; UT-7 cells) (human) (P19235 25-508): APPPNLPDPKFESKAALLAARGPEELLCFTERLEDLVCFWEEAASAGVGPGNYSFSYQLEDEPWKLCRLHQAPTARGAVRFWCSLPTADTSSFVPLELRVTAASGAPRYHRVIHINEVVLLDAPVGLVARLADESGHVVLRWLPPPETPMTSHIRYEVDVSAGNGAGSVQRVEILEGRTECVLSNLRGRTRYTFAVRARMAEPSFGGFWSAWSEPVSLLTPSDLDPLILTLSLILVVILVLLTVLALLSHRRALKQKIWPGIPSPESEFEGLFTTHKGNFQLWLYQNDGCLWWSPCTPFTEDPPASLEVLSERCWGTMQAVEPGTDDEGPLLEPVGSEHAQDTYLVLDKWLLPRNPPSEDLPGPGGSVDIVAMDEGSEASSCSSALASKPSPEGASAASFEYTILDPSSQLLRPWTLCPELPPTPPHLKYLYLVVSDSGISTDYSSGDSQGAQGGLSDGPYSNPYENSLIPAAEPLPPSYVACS

Row | EPO-mediated Stat5 Phosphorylation in 293T/EPOR, Elisa [%] | Substance
1 | 86 | IME005 (EPO-Fc, K45D) (from UniProt P01588 28-193) (Fc fusion)
2 | 37 | IME006 (EPO-Fc, N147K) (from UniProt P01588 28-193) (Fc fusion)
3 | 27 | IME007 (EPO-Fc, R150E) (from UniProt P01588 28-193) (Fc fusion)
4 | 30 | IME008 (EPO-Fc, R103A) (from UniProt P01588 28-193) (Fc fusion)
5 | 13 | IME009 (EPO-Fc, K45D/R103A) (from UniProt P01588 28-193) (Fc fusion)
6 | 5 | IME010 (EPO-Fc, N147K/R103A) (from UniProt P01588 28-193) (Fc fusion)
7 | 5 | IME011 (EPO-Fc, R150E/R103A) (from UniProt P01588 28-193) (Fc fusion)
8 | 4 | IME012 (EPO-Fc, E62R) (from UniProt P01588 28-193) (Fc fusion)
9 | 100 | IME013 (EPO-Fc, Q65A) (from UniProt P01588 28-193) (Fc fusion)
10 | 82 | IME014 (EPO-Fc, E72R) (from UniProt P01588 28-193) (Fc fusion)
11 | 27 | IME015 (EPO-Fc, R76E) (from UniProt P01588 28-193) (Fc fusion)
12 | 0 | IME030 (HSA-HBP, helix B peptide fused to albumin)
13 | 0 | IME031 (HSA-HBSP, helix B surface peptide fused to albumin)
14 | 2 | IME032 (EPO-Fc, E62A) (from UniProt P01588 28-193) (Fc fusion)
15 | 75 | IME033 (EPO-Fc, E72A) (from UniProt P01588 28-193) (Fc fusion)
16 | 5 | IME034 (EPO-Fc, R76A) (from UniProt P01588 28-193) (Fc fusion)
17 | 71 | IME037 (EPO-Fc, Q58A) (from UniProt P01588 28-193) (Fc fusion)
18 | 57 | IME038 (EPO-Fc, L69A) (from UniProt P01588 28-193) (Fc fusion)
19 | 32 | IME039 (EPO-Fc, L80A) (from UniProt P01588 28-193) (Fc fusion)
20 | 0 | IME043 (EPO-HSA, R103A) (from UniProt P01588 28-193)
21 | 94 | IME044 (EPO-HSA, Q65A/E72R) (from UniProt P01588 28-193)
22 | 105 | IME045 (EPO-HSA, Q65A/E72R/N83A) (from UniProt P01588 28-193)
23 | 90 | IME046 (EPO-HSA, K20A/K45A/K52A) (from UniProt P01588 28-193)
24 | 23 | IME047 (EPO-HSA, K140A/K152A) (from UniProt P01588 28-193)
25 | 11 | IME048 (EPO-HSA, K140A/K152A/K154A) (from UniProt P01588 28-193)
26 | 15 | IME049 (EPO-HSA, K20A/K45A/K52A/K140A/K152A/K154A) (from UniProt P01588 28-193)
